{"source": "patent US10266547B2", "about": "“Thieno[2,3-e]indole derivatives as new antitumor agents” (NERVIANO MEDICAL SCIENCES S.R.L., priority 2013, dated 2019)", "biological_target": "cathepsin B (Homo sapiens, UniProt P07858)", "experiment": "Release of a drug moiety from a conjugate in presence of cathepsin", "format": "in vitro ADME", "details": "0.2 units cathepsin B, sodium acetate buffer pH 5.5, 1 mM Cys, 2 hours at 40° C., HPLC ESI-MS", "protocol": "As an example, that is not intended to limit the scope of the invention, the release of a compound of formula (II) from the conjugate was performed in presence of cathepsin as reported below.\nThe conjugate A1 was incubated with 0.2 units of cathepsin B in sodium acetate buffer pH 5.5 and 1 mM Cys for 2 hours at 40° C.", "data": [{"smiles": "Cc1cc2c(OC(=O)N(C)CCN(C)C(=O)OCc3ccc(NC(=O)[C@H](CCCNC(N)=O)NC(=O)[C@@H](NC(=O)CCCCCN4C(=O)CC(SC[C@H](N)C(=O)O)C4=O)C(C)C)cc3)cc3c(c2s1)[C@H](CCl)CN3C(=O)c1cc2cc(OCCN3CCCC3)ccc2[nH]1", "note": "(stereo partly shown) [A1]", "values": [{"measurement": "release of the compound of formula (II) from the conjugate (breaking of the Z peptidic linker)", "value": "Disappearance of the conjugate A1 and release of the corresponding compound of formula (II)"}]}]}
